Laboratory results published in US20230159646A1 (IBIO, published 2023).
Each block holds one binder with its values, some of them ahead of it.

Tests used:
[1] = target: T1, CD25 (as used in the Carterra LSA kinetics; species and construct not stated) (Homo sapiens (Human), UniProt P01589 22-240); experiment: Carterra LSA kinetics
T1 sequence: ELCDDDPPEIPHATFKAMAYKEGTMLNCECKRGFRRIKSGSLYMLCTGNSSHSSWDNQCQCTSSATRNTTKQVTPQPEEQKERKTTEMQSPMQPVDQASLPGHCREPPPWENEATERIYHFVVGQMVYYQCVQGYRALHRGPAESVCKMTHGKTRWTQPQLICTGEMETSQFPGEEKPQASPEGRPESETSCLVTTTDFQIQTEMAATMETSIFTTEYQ

[2] = target: T1, CD25 (as used in the Carterra LSA …); experiment: Carterra LSA kinetics; KD SD 1.27 nM
[3] = target: T2, mouse CD25 (immobilized, ELISA) (mouse, UniProt P01590 22-236, limits assumed); experiment: ELISA, immobilized mouse CD25 (N/A in the 14th table, row 10, column 6)
T2 construct: also called immobilized mouse CD25
T2 sequence (looked up): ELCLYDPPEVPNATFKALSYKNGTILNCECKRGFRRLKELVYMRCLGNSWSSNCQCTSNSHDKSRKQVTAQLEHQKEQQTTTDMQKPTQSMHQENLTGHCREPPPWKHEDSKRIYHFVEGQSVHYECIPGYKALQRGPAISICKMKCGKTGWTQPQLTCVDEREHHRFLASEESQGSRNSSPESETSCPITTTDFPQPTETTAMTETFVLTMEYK

[4] = target: T3, human CD25 (Sino Biologicals, 10165-H08H) (human, UniProt P01589 22-213); experiment: ELISA, immobilized human CD25; average of n>=3, SD 3.2
T3 construct: Bought recombinant protein coated on ELISA plates; also called immobilized human CD25; IL2RA
T3 sequence (looked up): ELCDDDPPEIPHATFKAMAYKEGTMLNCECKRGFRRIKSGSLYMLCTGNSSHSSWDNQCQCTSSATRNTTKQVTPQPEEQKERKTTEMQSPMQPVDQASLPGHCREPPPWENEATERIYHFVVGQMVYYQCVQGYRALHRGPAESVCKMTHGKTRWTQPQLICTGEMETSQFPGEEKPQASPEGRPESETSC

[5] = target: T4, CD25 endogenously expressed on SUDHL-1 human lymphoma cell line and on induced human Treg (iTreg) (human, UniProt P01589 22-272); experiment: flow cytometry, SUDHL-1 cells; average of n>=6, SD 38.12
T4 construct: whole, on cells; also called CD25 on SUDHL-1 and iTreg; CD25 expressing SUDHL-1
T4 sequence (looked up): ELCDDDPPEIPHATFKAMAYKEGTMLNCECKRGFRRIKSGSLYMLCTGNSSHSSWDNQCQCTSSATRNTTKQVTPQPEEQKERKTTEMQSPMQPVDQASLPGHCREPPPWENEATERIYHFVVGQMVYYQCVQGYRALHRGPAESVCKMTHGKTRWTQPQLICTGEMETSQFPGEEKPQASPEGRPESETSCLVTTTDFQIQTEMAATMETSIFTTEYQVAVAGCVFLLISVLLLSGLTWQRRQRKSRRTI

[6] = target: T5, cynomolgus CD25 (Sino Biologicals, 90265-C08H) (cynomolgus, UniProt H6WS54 22-213); experiment: ELISA, immobilized cynomolgus CD25; average of n>=3, SD 9.8
T5 construct: Bought recombinant protein coated on ELISA plates; also called immobilized cynomolgus CD25; cynos monkey CD25
T5 sequence: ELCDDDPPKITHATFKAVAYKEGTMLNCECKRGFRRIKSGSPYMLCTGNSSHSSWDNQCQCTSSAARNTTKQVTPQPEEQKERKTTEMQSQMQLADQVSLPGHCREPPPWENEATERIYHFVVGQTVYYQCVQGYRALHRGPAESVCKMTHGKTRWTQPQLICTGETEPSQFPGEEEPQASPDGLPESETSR

[7] = target: T4, CD25 endogenously expressed on SUDHL-1 …; experiment: flow cytometry, human iTreg cells; average of n=3, SD 83.94
[8] = target: T2, mouse CD25 (immobilized, ELISA); experiment: ELISA, immobilized mouse CD25 (N/A in the 14th table, row 7, column 6)
[9] = target: T2, mouse CD25 (immobilized, ELISA); experiment: ELISA, immobilized mouse CD25 (N/A in the 14th table, row 9, column 6)
[10] = target: T1, CD25 (as used in the Carterra LSA …); experiment: Carterra LSA kinetics; KD SD 1.03 nM
[11] = target: T2, mouse CD25 (immobilized, ELISA); experiment: ELISA, immobilized mouse CD25 (N/A in the 14th table, row 8, column 6)
[12] = target: T3, human CD25 (Sino Biologicals, …); experiment: ELISA, immobilized human CD25; average of n>=3, SD 2.5
[13] = target: T4, CD25 endogenously expressed on SUDHL-1 …; experiment: flow cytometry, SUDHL-1 cells; average of n>=6, SD 39.9
[14] = target: T4, CD25 endogenously expressed on SUDHL-1 …; experiment: flow cytometry, human iTreg cells; average of n=3, SD 40.50
[15] = target: T5, cynomolgus CD25 (Sino Biologicals, …); experiment: ELISA, immobilized cynomolgus CD25; average of n>=3, SD 12.3

koff [1]: 0.00207 s⁻¹
kon [1]: 492000 M⁻¹ s⁻¹
Kd [2]: 4.27 nM
binding result [3]: no binding (tested: 10 µg/mL)
EC50 [4]: 0.0174 µg/mL
EC50 [5]: 0.123 µg/mL
EC50 [6]: 0.0424 µg/mL
EC50 [7]: 0.218 µg/mL
B1: IBIO-101-plant-afuc (SD-889825-PC-A; IBIO-101, c-105 plant Afucosylated) (antibody, human IgG1, kappa, V domains shown)
VH: QVQLVQSGAEVKKPGASLKISCKGSGYTFTDYAMHWVRQAPGQGLEWIGVISTYSGDAIYAQKFQGRATMTVDTSTSTAYLELSSLRSEDTAVYYCARGVTFDYWGQGTTVTVSS
VL: DIQMTQSPSSLSASVGDRVTITCRASQDISNYLEWYQQKPGKAPKLLVYNAKTLAEGVPSRFSGSGSGTDFTLTISSLQPEDFGTYYCQHHYDTPYTFGQGTKLEIKR
modifications: afucosylated glycan (made in C105 dXT/FT plants deficient in fucosylation and xylosylation)
notes: Signal peptide of the entries is not part of the mature antibody; Human IgG1 constant region, afucosylated; also called RTX-003; hD11

binding result [8]: no binding (tested: 10 µg/mL)
B2: IBIO-101-CHO-WT (SD-889825-CW-A; IBIO-101, wild-type CHO cells) (antibody, human IgG1, kappa, V domains shown)
VH: B1 VH
VL: B1 VL
notes: the entries carry the plant extensin signal peptide, which is not part of the mature antibody; Human IgG1 constant region, fucosylated (WT); also called RTX-003; hD11

binding result [9]: no binding (tested: 10 µg/mL)
B3: IBIO-101-plant-WT (SD-889825-PW-A; IBIO-101, wild-type plant) (antibody, human IgG1, kappa, V domains shown)
VH: B1 VH
VL: B1 VL
notes: Signal peptide of the entries is not part of the mature antibody; Made in wild-type Nicotiana benthamiana; human IgG1 constant region; also called RTX-003; hD11

koff [1]: 0.00119 s⁻¹
kon [1]: 499000 M⁻¹ s⁻¹
Kd [10]: 3.9 nM
binding result [11]: no binding (tested: 10 µg/mL)
EC50 [12]: 0.0156 µg/mL
EC50 [13]: 0.126 µg/mL
EC50 [14]: 0.219 µg/mL
EC50 [15]: 0.0431 µg/mL
B4: IBIO-101-CHO-afuc (SD-889825-CG-A; IBIO-101, CHO cells Afucosylated) (antibody, human IgG1, kappa, V domains shown)
VH: B1 VH
VL: B1 VL
modifications: afucosylated glycan (as printed: afucosylated)
notes: signal peptide of the entries is not part of the mature antibody; Human IgG1 constant region, afucosylated; also called RTX-003; hD11
